# From patent US20180244768A1 (published 2018)
# T1: human thyroglobulin (TG) peptide on HLA-A*02:01 (human)
# T1 peptide: NLFGGKFLV
# T2: human thyroglobulin (TG) peptide on HLA-A*02:01 (human)
# T2 peptide: LVLEIFTLL
# B1: murine anti-TG TCR (TCR, V domains shown)
# Valpha: GEQVEQRPPHLSVREGDSAVIICTYTDPNSYYFFWYKQEPGAGLQLLMKVFSSTEINEGQGFTVLLNKKDKQLSLNLTAAHPGDSAVYFCAVSSSGSWQLIFGSGTQLTVMP
# Vbeta: NSKVIQTPRYLVKGQGQKAKMRCIPEKGHPVVFWYQQNKNNEFKFLINFQNQEVLQQIDMTEKRFSAECPSNSPCSLEIQSSEAGDSALYLCASLGGSQDTQYFGPGTRLLVL
# B2: human anti-TG TCR (TCR, V domains shown)
# Valpha: RKEVEQDPGPFNVPEGATVAFNCTYSNSASQSFFWYRQDCRKEPKLLMSVYSSGNEDGRFTAQLNRASQYISLLIRDSKLSDSATYLCVVHSSNTGKLIFGQGTTLQVKP
# Vbeta: NAGVTQTPKFQVLKTGQSMTLQCAQDMNHEYMSWYRQDPGMGLRLIHYSVGAGITDQGEVPNGYNVSRSTTEDFPLRLLSAAPSQTSVYFCASSYSLTSGGALVSYEQYFGPGTRLTVT
# Columns and labels:
# [1] = biological target: T1, human thyroglobulin (TG) peptide on …; assay: cytokine release
# Method: (§1) Interferon (IFN)-γ release by transduced PBL was determined as previously described in Wang et al., J. Immunol. Methods, 366(1-2): 43-51 (2011). Briefly, retrovirally-transduced cells (1×10⁵) were co-cultured with 5×10⁴ target cells (XTC, XTC/A2, Cos A2, or Cos A2 transfected with TG) or control tumor cell lines for 18-22 hrs in RPMI with 10% FBS at 37° C., 5% CO₂. On the subsequent day, IFN-γ secretion was determined by enzyme-linked immunosorbent assay (ELISA).
# [2] = biological target: T2, human thyroglobulin (TG) peptide on …; assay: cytokine release
# Method: as §1
Binder,binding result [1],binding result [2]
B1,recognises,
B2,,recognises
